Data as given in EP2135619A1.

Molecular target: human CC-chemokine receptor 2 (CCR2), endogenous on THP-1 cells, PBMC and whole blood cells (human) (UniProt P41597)
Assay: cell-based or functional assay

Sequence of UniProt P41597 (P41597 whole entry): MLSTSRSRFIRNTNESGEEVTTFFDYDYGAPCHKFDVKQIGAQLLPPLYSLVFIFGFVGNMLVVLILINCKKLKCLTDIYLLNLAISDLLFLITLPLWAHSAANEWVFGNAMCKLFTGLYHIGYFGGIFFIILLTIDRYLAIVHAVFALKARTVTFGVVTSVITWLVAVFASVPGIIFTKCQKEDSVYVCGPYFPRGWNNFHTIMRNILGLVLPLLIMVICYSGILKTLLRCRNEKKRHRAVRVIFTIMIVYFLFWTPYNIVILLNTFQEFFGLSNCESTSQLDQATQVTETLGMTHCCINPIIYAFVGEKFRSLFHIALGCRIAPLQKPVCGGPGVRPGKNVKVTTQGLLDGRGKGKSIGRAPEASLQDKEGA

MCP-1-induced chemotaxis of fresh PBMC: 10 µg/mL
Substance: murine monoclonal antibody LS132.1D9
